Some results are limits rather than exact numbers.

Experimental findings from US20020019341A1 (Stanford University, published 2002) are described below.

One experiment has as its target human CCR4 (human) (UniProt P51679). The experiment can be described thus: cell-based or functional assay.
A further experiment has as its target T1, integrin α4β7 (human, UniProt P13612 34-1032; P26010 20-798).
T1 construct: whole, on cells; also called a4p7
In words: cell adhesion to MAdCAM-1 transfectants, elution with 0.5mM EDTA.

Sequence of human CCR4 (human) (P51679 whole entry): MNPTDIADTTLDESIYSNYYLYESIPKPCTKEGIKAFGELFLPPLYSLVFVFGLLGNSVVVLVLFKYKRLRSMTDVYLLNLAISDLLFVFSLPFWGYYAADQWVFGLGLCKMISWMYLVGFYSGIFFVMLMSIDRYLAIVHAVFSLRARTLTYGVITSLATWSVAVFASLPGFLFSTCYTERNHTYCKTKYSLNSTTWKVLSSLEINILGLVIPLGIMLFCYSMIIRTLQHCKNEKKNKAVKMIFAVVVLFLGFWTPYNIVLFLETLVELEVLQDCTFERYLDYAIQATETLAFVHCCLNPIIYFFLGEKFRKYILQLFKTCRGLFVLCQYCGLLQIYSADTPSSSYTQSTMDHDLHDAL
T1 sequence (P13612 34-1032, chain 1 of 2): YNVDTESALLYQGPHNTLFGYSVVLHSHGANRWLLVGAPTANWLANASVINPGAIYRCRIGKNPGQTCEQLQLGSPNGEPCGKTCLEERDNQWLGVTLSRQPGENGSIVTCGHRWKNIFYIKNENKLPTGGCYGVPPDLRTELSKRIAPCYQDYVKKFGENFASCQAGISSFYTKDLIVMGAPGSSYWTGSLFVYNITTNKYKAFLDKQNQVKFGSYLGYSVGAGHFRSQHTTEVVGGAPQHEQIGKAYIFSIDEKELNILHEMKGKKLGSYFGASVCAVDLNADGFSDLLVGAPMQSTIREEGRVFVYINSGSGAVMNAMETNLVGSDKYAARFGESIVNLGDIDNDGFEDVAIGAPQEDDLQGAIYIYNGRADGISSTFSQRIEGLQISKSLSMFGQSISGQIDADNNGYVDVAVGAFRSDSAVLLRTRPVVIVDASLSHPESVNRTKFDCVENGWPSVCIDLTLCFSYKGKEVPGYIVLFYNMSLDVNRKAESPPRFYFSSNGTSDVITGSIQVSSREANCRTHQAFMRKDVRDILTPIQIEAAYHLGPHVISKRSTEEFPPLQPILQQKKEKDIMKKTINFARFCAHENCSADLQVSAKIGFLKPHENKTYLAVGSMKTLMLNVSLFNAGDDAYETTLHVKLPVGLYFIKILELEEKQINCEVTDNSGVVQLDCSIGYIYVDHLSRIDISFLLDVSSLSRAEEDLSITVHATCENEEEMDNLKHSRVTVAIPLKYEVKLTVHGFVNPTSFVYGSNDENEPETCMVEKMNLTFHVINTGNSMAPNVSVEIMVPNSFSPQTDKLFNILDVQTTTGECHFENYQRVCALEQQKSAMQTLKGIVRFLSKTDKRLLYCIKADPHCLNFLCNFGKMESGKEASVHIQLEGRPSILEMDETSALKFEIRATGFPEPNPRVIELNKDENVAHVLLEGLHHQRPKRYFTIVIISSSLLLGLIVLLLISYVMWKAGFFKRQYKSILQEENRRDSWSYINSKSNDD
T1 sequence (P26010 20-798, chain 2 of 2): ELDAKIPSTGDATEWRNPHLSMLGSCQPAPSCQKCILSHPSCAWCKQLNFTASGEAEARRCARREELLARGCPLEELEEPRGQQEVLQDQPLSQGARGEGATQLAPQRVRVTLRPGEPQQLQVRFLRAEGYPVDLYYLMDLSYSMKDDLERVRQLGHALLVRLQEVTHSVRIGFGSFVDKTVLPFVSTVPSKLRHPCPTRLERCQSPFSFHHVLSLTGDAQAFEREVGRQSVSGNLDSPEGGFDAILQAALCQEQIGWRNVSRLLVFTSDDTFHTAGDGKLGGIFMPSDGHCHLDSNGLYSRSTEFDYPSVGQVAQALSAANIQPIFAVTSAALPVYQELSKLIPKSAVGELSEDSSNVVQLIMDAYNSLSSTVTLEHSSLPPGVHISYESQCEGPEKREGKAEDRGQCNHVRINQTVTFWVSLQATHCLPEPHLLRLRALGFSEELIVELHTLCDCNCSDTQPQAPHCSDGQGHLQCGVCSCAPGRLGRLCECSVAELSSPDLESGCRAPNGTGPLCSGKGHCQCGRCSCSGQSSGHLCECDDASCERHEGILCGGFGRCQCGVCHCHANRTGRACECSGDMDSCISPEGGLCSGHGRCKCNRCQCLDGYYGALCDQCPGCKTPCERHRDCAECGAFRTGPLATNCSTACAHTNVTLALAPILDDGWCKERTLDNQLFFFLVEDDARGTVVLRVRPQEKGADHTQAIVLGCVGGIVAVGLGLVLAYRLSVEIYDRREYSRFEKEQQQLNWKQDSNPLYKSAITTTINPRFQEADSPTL

With “human TARC (thymus and activation-regulated chemokine) (from UniProt Q92583 24-94) (ligand)”, the rapid adhesion of α4β7(-) memory CD4+ lymphocytes to immobilized ICAM-1 (static assay, TARC at 1 µM) (% of input cells) in the experiment with human CCR4 (human) is less than 50.

B1: murine MAdCAM-1 (receptor, UniProt Q61826 22-405, looked up)
chain: QSFQVNPPESEVAVAMGTSLQITCSMSCDEGVARVHWRGLDTSLGSVQTLPGSSILSVRGMLSDTGTPVCVGSCGSRSFQHSVKILVYAFPDQLVVSPEFLVPGQDQVVSCTAHNIWPADPNSLSFALLLGEQRLEGAQALEPEQEEEIQEAEGTPLFRMTQRWRLPSLGTPAPPALHCQVTMQLPKLVLTHRKEIPVLQSQTSPKPPNTTSAEPYILTSSSTAEAVSTGLNITTLPSAPPYPKLSPRTLSSEGPCRPKIHQDLEAGWELLCEASCGPGVTVRWTLAPGDLATYHKREAGAQAWLSVLPPGPMVEGWFQCRQDPGGEVTNLYVPGQVTPNSSSTVVLWIGSLVLGLLALVFLAYRLWKCYRPGPRPDTSSCTHL
notes: whole, on cells; CHO cells transfected with murine MAdCAM-1; also called mucosal addressin cell adhesion molecule
Consider B1, for which the binding result with integrin α4β7 is given as “binds”.
